Results on 2 molecules are retold here after patent US20160145334A1 (AbbVie / Abbott, published 2016).

In experiment [1] the target is T1, rat NgR, full length, on cells (rat, UniProt Q99M75 27-447).
T1 construct: whole, on cells; also called CHO K1 Rat NGR; rat NgR expressed on HEK293f cells
T1 sequence (looked up): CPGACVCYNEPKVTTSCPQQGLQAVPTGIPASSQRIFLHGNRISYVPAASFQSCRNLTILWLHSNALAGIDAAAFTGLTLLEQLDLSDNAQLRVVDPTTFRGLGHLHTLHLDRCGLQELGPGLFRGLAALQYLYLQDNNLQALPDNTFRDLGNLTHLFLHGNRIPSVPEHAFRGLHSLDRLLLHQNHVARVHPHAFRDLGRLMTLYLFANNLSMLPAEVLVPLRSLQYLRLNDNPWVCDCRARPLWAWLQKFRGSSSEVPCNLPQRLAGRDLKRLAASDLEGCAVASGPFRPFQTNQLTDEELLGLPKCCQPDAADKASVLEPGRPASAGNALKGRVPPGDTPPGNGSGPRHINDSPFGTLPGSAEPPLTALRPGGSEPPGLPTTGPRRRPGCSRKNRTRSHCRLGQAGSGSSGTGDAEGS
As to the kind of experiment: FACS on HEK293f cells with rat NgR, AP-Nogo66 40 nM, Alexa Fluor-labelled anti-alkaline phosphatase antibody. The procedure:
(§1) To further characterize the binding and competitive properties of mAbs produced as described in Example 1, a suspension of HEK293f cells transiently expressing human or rat NgR was used. 48 h after transfection the cells were plated in 96-well microtiter plates (Nunc Maxisorb) and washed with Phosphate buffered saline buffer (PBS containing 1% BSA). 1 μg/200 μl of AP-Nogo66 (final concentration 40 nM) and varying concentrations of monoclonal antibodies (20 μg, 4, 0.8 and 0.16 μg/200 μl) were added and incubated for 1 h at 4° C. A monoclonal antibody with the same isotype was used as a negative control. The binding of AP-Nogo66 was detected with an anti-alkaline Phosphatase antibody (Sigma), which was labeled with Alexa Fluor using the Zenon mouse IgG2a labeling kit (Invitrogen). The secondary antibody was incubated for 1 h at 4° C. At the end of the incubation, the cells were washed with PBS and subjected to FACS analysis. At the 20 μg/200 μl concentration (20 fold molar excess) polyclonal anti-NgR antibody and the NgR-Fc (both from R&D Systems) blocked the AP-Nogo66 binding between 60% and 70%, while mAb 50 and 51 blocked the AP-Nogo66 binding by approximately 90%. […] The AP-Nogo66 fluorescence is shifted to lower intensities (shaded; green area) in the presence of both antibodies in HEK293f cells expressing human and rat NgR.

Experiment [2] deals with T2, human NgR, full length, on cells (human, UniProt Q9BZR6 27-447).
T2 construct: whole, on cells; also called HEK293 NGR; human NgR expressed on HEK293f cells
T2 sequence (looked up): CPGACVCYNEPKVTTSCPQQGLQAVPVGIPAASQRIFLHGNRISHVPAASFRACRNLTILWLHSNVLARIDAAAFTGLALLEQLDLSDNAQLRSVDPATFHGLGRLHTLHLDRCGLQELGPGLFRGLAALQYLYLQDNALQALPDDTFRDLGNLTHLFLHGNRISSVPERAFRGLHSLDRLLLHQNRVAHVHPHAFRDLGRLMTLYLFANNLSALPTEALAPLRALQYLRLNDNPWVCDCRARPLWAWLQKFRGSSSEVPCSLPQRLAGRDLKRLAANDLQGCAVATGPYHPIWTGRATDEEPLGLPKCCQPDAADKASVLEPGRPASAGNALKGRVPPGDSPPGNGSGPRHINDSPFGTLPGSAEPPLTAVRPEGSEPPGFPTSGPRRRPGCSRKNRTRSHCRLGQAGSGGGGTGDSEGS
As to the kind of experiment: FACS on HEK293f cells with human NgR, AP-Nogo66 40 nM, Alexa Fluor-labelled anti-alkaline phosphatase antibody. The procedure: as §1

The target in experiment [3] is T3, recombinant Rat MAG/Fc Chimera (R&D Systems, Catalog #538-MG) (rat, UniProt P07722 20-516).
T3 construct: Bought; labeled with horseradish peroxidase by the Zenon human IgG labeling kit in the assay; Fc part of the bought chimera not given; not described
T3 sequence (looked up): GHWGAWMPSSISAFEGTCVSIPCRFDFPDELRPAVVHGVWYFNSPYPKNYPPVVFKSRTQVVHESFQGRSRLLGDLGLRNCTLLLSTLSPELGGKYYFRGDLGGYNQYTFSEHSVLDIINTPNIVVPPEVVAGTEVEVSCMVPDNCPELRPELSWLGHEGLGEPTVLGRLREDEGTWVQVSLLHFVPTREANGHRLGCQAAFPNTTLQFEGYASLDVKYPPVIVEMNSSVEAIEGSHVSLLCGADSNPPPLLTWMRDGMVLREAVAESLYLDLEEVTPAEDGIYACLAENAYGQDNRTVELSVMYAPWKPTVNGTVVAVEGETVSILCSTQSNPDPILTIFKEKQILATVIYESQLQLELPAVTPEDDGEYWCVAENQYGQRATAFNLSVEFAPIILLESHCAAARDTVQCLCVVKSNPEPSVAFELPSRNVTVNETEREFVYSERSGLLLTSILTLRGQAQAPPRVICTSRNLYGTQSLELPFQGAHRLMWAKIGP
As to the kind of experiment: competition ELISA, human NgR-Fc coated 0.2 µg/well, HRP-labelled MAG-Fc at 50 ng/ml, competitor unlabelled MAG-Fc. The procedure: To further characterize the monoclonal antibodies a competition assay similar to the binding assay of Example 2 was used to test the ability of two mAbs produced in Example 1 to inhibit MAG-Fc binding to human NgR-Fc. We immobilized NgR-Fc (0.2 μg/well, R&D Systems) on 96-well microtiter plates (Nunc Maxisorb) in 50 mM Na-carbonate buffer pH 9 over night at 4° C. followed by a 2 h blocking step with 2% BSA in Tris-HCL, pH 7.2 at room temperature. MAG-Fc (R&D Systems recombinant Rat MAG/Fc Chimera, Catalog #538-MG) was labeled with horseradish peroxidase by the Zenon human IgG labeling kit (Molecular Probes). The wells received a constant concentration of labeled MAG-Fc (final concentration 50 ng/ml in Tris-HCL, pH 7.2 with 0.1% BSA) and the indicated concentrations of mAb 50 and mAb 51. This was incubated for 60 min at room temperature and using unlabeled MAG-Fc and NgR-Fc as controls. During each incubation step plates were washed with washing buffer (10 mM Tris-HCl, pH 7.2 and 0.05% Tween 20). Labeled MAG-Fc was developed using 3,3′,5,5′-tetramethylbenzidine substrate (TMB, Pierce) under standard conditions. […] MAG-Fc and NgR-Fc competed for the binding of labeled MAG-Fc (closed circles) to human NgR-Fc (a fusion protein comprising amino acids Met 1 to Ser 447 of the human NgR and a human Fc fragment (R&D Systems); closed squares). […]
(In general: In an ELISA, binding on a coated surface is turned into a signal by an enzyme label.)

B1: AP-Nogo66 (ligand)
chain: DAAQPARRARRTYEAYVRSSGIIPVEEENPDFWNREAAEALGAAKKLQPAQTAAKNLIIFLGDGMGVSTVTAARILKGQKKDKLGPEIPLAMDRFPYVALSKTYNVDKHVPDSGATATAYLCGVKGNFQTIGLSAAARFNQCNTTRGNEVISVMNRAKKAGKSVGVVTTTRVQHASPAGTYAHTVNRNWYSDADVPASARQEGCQDIATQLISNMDIDVILGGGRKYMFRMGTPDPEYPDDYSQGGTRLDGKNLVQEWLAKRQGARYVWNRTELMQASLDPSVTHLMGLFEPGDMKYEIHRDSTLDPSLMEMTEAALRLLSRNPRGFFLFVEGGRIDHGHHESRAYRALTETIMFDDAIERAGQLTSEEDTLSLVTADHSHVFSFGGYPLRGSSIFGLAPGKARDRKAYTVLLYGNGPGYVLKDGARPDVTESESGSPEYRQQSAVPLDEETHAGEDVAVFARGPQAHLVHGVQEQTFIAHVMAFAACLEPYTACDLAPPAGTTDAAHPGYLEEALSLERIYKGVIQAIQKSDEGHPFRAYLESEVAISEELVQKYSNSALGHVNCTIKELRRLFLVDDLVDSLKSLEGPEQKLISEEDLNSAVDHHHHHH
notes: Nogo66 cloned into pAPTag5, made in HEK293 cells; also called Nogo66 fused to an alkaline phosphatase tag
Turning to B1, the binding result in experiment [1] and in experiment [2] was “binds” each time.

B2: human recombinant NgR/Fc chimera (R&D Systems, Cat. Number 1208-NG) (Fc fusion, UniProt Q9BZR6 27-447, looked up)
chain: T2 sequence (looked up)
notes: range 1-447; Bought from R&D Systems; also called hNgR-Fc; human NgR-Fc; not shown: human Fc fragment
For the molecule B2, the binding result in experiment [3] is on record as “binds”.
